# Laboratory results: PMC8189437 (Molecular Cell, 2021)
# T1: Gid9 (S. cerevisiae, UniProt P40492 1-516)
# T1 sequence: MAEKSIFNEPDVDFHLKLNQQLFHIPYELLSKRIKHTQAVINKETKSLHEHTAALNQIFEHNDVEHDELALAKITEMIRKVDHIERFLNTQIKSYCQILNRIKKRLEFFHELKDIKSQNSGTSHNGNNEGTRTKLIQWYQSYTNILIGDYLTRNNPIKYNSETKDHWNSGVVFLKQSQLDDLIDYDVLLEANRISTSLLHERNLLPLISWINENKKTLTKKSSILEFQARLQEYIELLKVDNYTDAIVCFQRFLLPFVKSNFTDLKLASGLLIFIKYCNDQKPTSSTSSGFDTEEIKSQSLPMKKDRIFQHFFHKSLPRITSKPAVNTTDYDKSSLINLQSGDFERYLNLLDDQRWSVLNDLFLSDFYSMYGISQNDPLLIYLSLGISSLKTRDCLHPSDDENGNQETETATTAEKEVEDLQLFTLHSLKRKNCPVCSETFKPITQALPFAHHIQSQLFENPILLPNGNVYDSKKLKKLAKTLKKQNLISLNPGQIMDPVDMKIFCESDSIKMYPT
# T2: Gid5 (S. cerevisiae, UniProt P40547)
# T2 sequence: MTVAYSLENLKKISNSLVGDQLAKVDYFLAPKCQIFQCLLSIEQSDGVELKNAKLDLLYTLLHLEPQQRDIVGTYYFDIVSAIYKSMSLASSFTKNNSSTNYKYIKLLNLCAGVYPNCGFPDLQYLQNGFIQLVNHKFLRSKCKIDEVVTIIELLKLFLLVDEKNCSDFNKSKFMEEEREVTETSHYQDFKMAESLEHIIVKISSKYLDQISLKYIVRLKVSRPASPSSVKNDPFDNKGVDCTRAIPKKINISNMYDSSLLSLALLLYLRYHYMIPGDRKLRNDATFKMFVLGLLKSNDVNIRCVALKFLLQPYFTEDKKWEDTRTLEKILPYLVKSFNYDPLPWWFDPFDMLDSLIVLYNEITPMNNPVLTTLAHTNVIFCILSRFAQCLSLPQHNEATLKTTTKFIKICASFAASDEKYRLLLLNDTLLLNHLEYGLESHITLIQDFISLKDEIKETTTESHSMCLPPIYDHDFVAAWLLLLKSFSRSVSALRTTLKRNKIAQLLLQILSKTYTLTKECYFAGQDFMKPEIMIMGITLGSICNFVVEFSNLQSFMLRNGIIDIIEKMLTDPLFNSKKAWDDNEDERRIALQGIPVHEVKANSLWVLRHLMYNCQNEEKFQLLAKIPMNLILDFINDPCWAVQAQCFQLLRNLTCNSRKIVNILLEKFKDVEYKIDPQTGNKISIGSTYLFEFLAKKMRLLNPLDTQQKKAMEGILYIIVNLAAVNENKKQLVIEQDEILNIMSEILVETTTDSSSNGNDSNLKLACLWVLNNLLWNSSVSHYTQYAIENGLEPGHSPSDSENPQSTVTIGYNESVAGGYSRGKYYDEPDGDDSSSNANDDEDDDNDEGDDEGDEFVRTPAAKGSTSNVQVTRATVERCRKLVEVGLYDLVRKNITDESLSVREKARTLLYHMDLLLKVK
# T3: Gid1 (S. cerevisiae, UniProt P53076)
# T3 sequence: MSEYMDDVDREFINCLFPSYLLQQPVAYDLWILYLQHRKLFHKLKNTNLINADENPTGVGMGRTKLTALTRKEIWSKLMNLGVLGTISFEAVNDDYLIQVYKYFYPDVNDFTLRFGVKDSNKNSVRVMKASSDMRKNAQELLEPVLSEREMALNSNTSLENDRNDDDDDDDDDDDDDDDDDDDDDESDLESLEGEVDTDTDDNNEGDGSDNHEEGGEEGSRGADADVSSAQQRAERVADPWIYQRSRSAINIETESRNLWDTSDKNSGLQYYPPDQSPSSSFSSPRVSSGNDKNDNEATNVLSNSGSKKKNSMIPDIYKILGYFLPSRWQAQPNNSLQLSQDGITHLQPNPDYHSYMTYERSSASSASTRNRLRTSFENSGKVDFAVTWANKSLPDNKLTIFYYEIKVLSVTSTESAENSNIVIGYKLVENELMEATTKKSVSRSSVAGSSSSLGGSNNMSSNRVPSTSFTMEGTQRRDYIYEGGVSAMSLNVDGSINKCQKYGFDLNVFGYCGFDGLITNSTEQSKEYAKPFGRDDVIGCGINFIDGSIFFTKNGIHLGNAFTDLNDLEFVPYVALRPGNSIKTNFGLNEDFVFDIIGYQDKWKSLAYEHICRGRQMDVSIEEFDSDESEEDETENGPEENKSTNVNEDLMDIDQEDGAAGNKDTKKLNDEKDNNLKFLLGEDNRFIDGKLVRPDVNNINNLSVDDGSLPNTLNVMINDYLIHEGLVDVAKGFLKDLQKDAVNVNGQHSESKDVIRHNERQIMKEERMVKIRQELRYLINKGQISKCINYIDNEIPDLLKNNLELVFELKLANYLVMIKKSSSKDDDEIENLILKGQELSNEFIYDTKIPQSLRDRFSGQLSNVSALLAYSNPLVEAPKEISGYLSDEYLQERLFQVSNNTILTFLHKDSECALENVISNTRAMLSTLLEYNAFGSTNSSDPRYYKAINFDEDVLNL
# B1: Gid2 (natural protein)
# chain: MSELLDSFETEFAKFYTDSNLEETNLQKCLDHTHEFKSQLKKLKAHLNKHIQESKPEVYNKLSDKEKQKFKRKRELIIEKLSKSQRQWDHSVKKQIKYVSQQSNRFNKSTLNKLKEFDIDSVYVNKLPKETMENVNEAIGYHILRYSIDNMPLGNKNEAFQYLKDVYGITNKESTEFIEMGQIVHDLKKGDTESCLKWCSNEMESLSSNHTALSSLKFDLYTLSAMQIVKHGNPVELYYQITQNAPLDCFRHREKELMQNVVPLLTKSLIGQPIEDIDSKVNKELKECTSLFIKEYCAAKHIFFDSPLFLIVLSGLISFQFFIKYKTIRELAHVDWTTKDELPFDVKLPDFLTHFHPIFICPVLKEETTTENPPYSLACHHIISKKALDRLSKNGTITFKCPYCPVNTSMSSTKKVRFVML
# B2: Gid4 (Δ1-116) (domain or fragment)
# chain: TVCTNYLRPRMQFTGYQISGYKRYQVTVNLKTVDLPKKDCTSLSPHLSGFLSIRGLTNQHPEISTYFEAYAVNHKELGFLSSSWKDEPVLNEFKATDQTDLEHWINFPSFRQLFLMSQKNGLNSTDDNGTTNAAKKLPPQQLPTTPSADAGNISRIFSQEKQFDNYLNERFIFMKWKEKFLVPDALLMEGVDGASYDGFYYIVHDQVTGNIQGFYYHQDAEKFQQLELVPSLKNKVESSDCSFEFA
# B3: fructose-1,6-bisphosphatase (Fbp1), C-terminally 6xHis-tagged (enzyme)
# chain: PTLVNGPRRDSTEGFDTDIITLPRFIIEHQKQFKNATGDFTLVLNALQFAFKFVSHTIRRAELVNLVGLAGASNFTGDQQKKLDVLGDEIFINAMRASGIIKVLVSEEQEDLIVFPTNTGSYAVCCDPIDGSSNLDAGVSVGTIASIFRLLPDSSGTINDVLRCGKEMVAACYAMYGSSTHLVLTLGDGVDGFTLDTNLGEFILTHPNLRIPPQKAIYSINEGNTLYWNETIRTFIEKVKQPQADNNNKPFSARYVGSMVADVHRTFLYGGLFAYPCDKKSPNGKLRLLYEAFPMAFLMEQAGGKAVNDRGERILDLVPSHIHDKSSIWLGSSGEIDKFLDHIGKSQ
# B4: Gid8 with a C-terminal twin-Strep tag (natural protein)
# chain: MTISTLSNETTKSGSCSGQGKNGGKDFTYGKKCFTKEEWKEQVAKYSAMGELYANKTIHYPLKIQPNSSGGSQDEGFATIQTTPIEPTLPRLLLNYFVSMAYEDSSIRMAKELGFIRNNKDIAVFNDLYKIKERFHIKHLIKLGRINEAMEEINSIFGLEVLEETFNATGSYTGRTDRQQQQQQQQFDIDGDLHFKLLLLNLIEMIRSHHQQENITKDSNDFILNLIQYSQNKLAIKASSSVKKMQELELAMTLLLFPLSDSADSGSIKLPKSLQNLYSISLRSKIADLVNEKLLKFIHPRIQFEISNNNSKFPDLLNSDKKIITQNFTVYNNNLVNGSNGTKITHISSDQPINEKMSSNEVTAAANSVWLNQRDGNVGTGSAATTFHNLENKNYWNQTSELLSSSNGKEKGLEFNNYYSSEFPYEPRLTQIMKLWCWCENQLHHNQIGVPRVEN
# How the values were obtained:
# GST-WDR26 (human) = GST-WDR26 (human) (UniProt Q9H7D7); assay: cryo-EM structure
# Gid9 = biological target: T1, Gid9; assay: cryo-EM structure
# [1] = biological target: B4; assay: cryo-EM structure
# Gid5 = biological target: T2, Gid5; assay: cryo-EM structure
# crystal structure = biological target: the molecule itself; assay: crystal structure
# Gid1 = biological target: T3, Gid1; assay: cryo-EM structure
molecule,measurement,setting,value
GST-WDR26 (from UniProt Q9H7D7 1-661) (natural protein),stoichiometry N,GST-WDR26 (human),2
B1,binding result,Gid9,binds
same,binding result,[1],binds
B2,binding result,Gid5,binds
B3,stoichiometry N,crystal structure,4
B4,binding result,Gid9,binds
same,binding result,Gid1,binds
